Measured values from publication PMC8703291, “Non-Cationic RGD-Containing Protein Nanocarrier for Tumor-Targeted siRNA Delivery” (Pharmaceutics, 2021).

Molecular target: the molecule itself
Assay: non-reducing SDS-PAGE; purified dual-RGD under non-reducing conditions, Coomassie blue staining

B1: dual-RGD-dsRBD-18his (dual-RGD) recombinant protein (designed binder)
chain: CDCRGDCFCAGDLSAGFFMEELNTYRQKQGVVLKYQELPNSGPPHDRRFTFQVIIDGREFPEGEGRSKKEAKNAAAKLAVEILNKEKKAVSPLLLTTTNSSEGLSMGNYIGLINRIAQKKRLTVNYEQCASGVHGPEGFHYKCKMGQKEYSIGTGSTKQEAKQLAAKLAYLQILSEETSVGRGDS
notes: cyclic RGD peptide RGD-4C appended to the N-terminal of dsRBD-18His; linear GRGDS (Gly-Arg-Gly-Asp-Ser) peptide added to the C-terminal of dsRBD-18His; MW ~26 kDa (monomer); also called dual-RGD carrier; source: E. coli BL21 (DE3), purified (nickel resin), dialysed against PBS with 10% glycerol and 0.1% β-ME
B1 was tested, and the “stoichiometry N” value was 2.
